Several values for one entry are separate records, joined by “and”; a condition that tells them apart may be missing. Identical values can stand only once.
Key:
MDA-MB-231 cells = assay: MTT proliferation assay, MDA-MB-231; assay type: cell-based, human;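 note: human cancer cells kept at 37 °C in humidified 5% CO2, with treated groups compared against a vehicle control group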
PANC-1 cells = assay: MTT proliferation assay, PANC-1; assay type: cell-based, human; settings: for Mean Absorbance (570 nM) ± S.E.: single experiments 1-3
TNF-alpha = target: T1, TNF-alpha (Homo sapiens, UniProt P01375); assay: Inhibition of TNF-alpha cytotoxicity in U937 cells; assay type: cell-based; settings: constant dose of TNF-alpha at EC50; for inhibition of killing of U937 by TNF-alpha (in words): FIG. 14
T1 construct: host or cells: added to U937 cells
T1 sequence (P01375 77-233 limits assumed): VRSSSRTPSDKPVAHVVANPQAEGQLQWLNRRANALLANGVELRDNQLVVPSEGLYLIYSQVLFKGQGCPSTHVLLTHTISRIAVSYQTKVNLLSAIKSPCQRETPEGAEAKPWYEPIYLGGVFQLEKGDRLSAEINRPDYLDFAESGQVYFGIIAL

B1: B.VHH14: anti-STAT3 single-domain antibody VHH14, SEQ ID NO. 4 (protein)
VHH: QVQLVESGGGSVQAGGSLRLSCVASTYTGCMGWFRQAPGKEREGVAALSSRGFAGHYTDSVKGRFSISRDYVKNAVYLQMNTVKPEDAAMYYCAAREGWECGETWLDRTAGGHTYWGQGTLVTVSS
modifications: camelid
MDA-MB-231 cells; 3 days of treatment, 10.0 μg/ml
  % Inhibition of cell proliferation: 23.1%
MDA-MB-231 cells; 3 days of treatment, 100.0 μg/ml
  % Inhibition of cell proliferation: 57.0%
MDA-MB-231 cells; 5 days of treatment, 0.5 μg/ml
  % Inhibition of cell proliferation: 0%
MDA-MB-231 cells; 5 days of treatment, 1.0 μg/ml
  % Inhibition of cell proliferation: 0%
MDA-MB-231 cells; 5 days of treatment, 10.0 μg/ml
  % Inhibition of cell proliferation: 5.5%
MDA-MB-231 cells; 5 days of treatment, 100.0 μg/ml
  % Inhibition of cell proliferation: 18.9%
MDA-MB-231 cells; Day 3 post treatment, 0.5 μg/ml
  Mean Absorbance (570 nM) ± S.E.: 0.666 ± 0.022
MDA-MB-231 cells; Day 3 post treatment, 1.0 μg/ml
  Mean Absorbance (570 nM) ± S.E.: 0.644 ± 0.045
MDA-MB-231 cells; Day 3 post treatment, 10.0 μg/ml
  Mean Absorbance (570 nM) ± S.E.: 0.456 ± 0.048
MDA-MB-231 cells; Day 3 post treatment, 100 μg/ml
  Mean Absorbance (570 nM) ± S.E.: 0.255 ± 0.005
MDA-MB-231 cells; Day 5 post treatment, 0.5 μg/ml
  Mean Absorbance (570 nM) ± S.E.: 0.733 ± 0.038
MDA-MB-231 cells; Day 5 post treatment, 1.0 μg/ml
  Mean Absorbance (570 nM) ± S.E.: 0.794 ± 0.023
MDA-MB-231 cells; Day 5 post treatment, 10.0 μg/ml
  Mean Absorbance (570 nM) ± S.E.: 0.640 ± 0.011
MDA-MB-231 cells; Day 5 post treatment, 100 μg/ml
  Mean Absorbance (570 nM) ± S.E.: 0.549 ± 0.023
MDA-MB-231 cells; Table 6, Day 3, 10.0 μg/ml
  Mean Absorbance (570 nM) ± S.E., Overall Mean: 0.504 ± 0.021
MDA-MB-231 cells; Table 6, Day 3, 10.0 μg/ml, single experiments 1-4
  Mean Absorbance (570 nM) ± S.E.: 0.456 ± 0.048 and 0.499 ± 0.018 and 0.502 ± 0.048 and 0.559 ± 0.041
MDA-MB-231 cells; Table 6, Day 3, 100 μg/ml
  Mean Absorbance (570 nM) ± S.E., Overall Mean: 0.302 ± 0.043
MDA-MB-231 cells; Table 6, Day 3, 100 μg/ml, single experiments 1-4
  Mean Absorbance (570 nM) ± S.E.: 0.255 ± 0.005 and 0.357 ± 0.019 and 0.308 ± 0.021 and 0.287 ± 0.021
MDA-MB-231 cells; Table 7, Day 5, 10.0 μg/ml
  Mean Absorbance (570 nM) ± S.E., Overall Mean: 0.688 ± 0.131
MDA-MB-231 cells; Table 7, Day 5, 100 μg/ml
  Mean Absorbance (570 nM) ± S.E., Overall Mean: 0.475 ± 0.0690
MDA-MB-231 cells; post 3 days, 10.0 μg/ml
  Overall Average % Inhibition: 26.2%
MDA-MB-231 cells; post 3 days, 10.0 μg/ml, single experiments 1-4
  Mean Growth Inhibition: 23.1% and 20.0% and 38.5% and 23.3%
MDA-MB-231 cells; post 3 days, 100 μg/ml
  Overall Average % Inhibition: 55.7%
MDA-MB-231 cells; post 3 days, 100 μg/ml, single experiments 1-4
  Mean Growth Inhibition: 57.0% and 42.8% and 62.3% and 60.6%
MDA-MB-231 cells; post 5 days, 10.0 μg/ml
  Overall Average % Inhibition: 14.9%
MDA-MB-231 cells; post 5 days, 100 μg/ml
  Overall Average % Inhibition: 38.6%

B2: H.VHH14: anti-STAT3 sdAb VHH14, SEQ ID NO. 4 (protein)
VHH: B1 VHH
modifications: camelid
PANC-1 cells; Day 3, 10.0 μg/ml
  Mean Absorbance (570 nM) ± S.E., Overall Mean: 1.089 ± 0.085
  Mean Absorbance (570 nM) ± S.E.: 0.920 ± 0.133 and 1.183 ± 0.114 and 1.163 ± 0.044
PANC-1 cells; Day 3, 100 μg/ml
  Mean Absorbance (570 nM) ± S.E., Overall Mean: 0.906 ± 0.054
  Mean Absorbance (570 nM) ± S.E.: 0.808 ± 0.239 and 0.993 ± 0.088 and 0.916 ± 0.088
PANC-1 cells; Day 5, 10.0 μg/ml
  Mean Absorbance (570 nM) ± S.E., Overall Mean: 1.368 ± 0.247
  Mean Absorbance (570 nM) ± S.E.: 1.859 ± 0.033 and 1.165 ± 0.015 and 1.081 ± 0.103
PANC-1 cells; Day 5, 100 μg/ml
  Mean Absorbance (570 nM) ± S.E., Overall Mean: 0.754 ± 0.333

B3: anti-TNF-alpha VHH69: anti-TNF-alpha sdAb, SEQ ID NO. 46 (protein)
VHH: EVQLVESGGGSVLAGGSLRLSCVASGFTSRYNYMAWFRQAPGKEREGVATIGTASGSADYYGSVKDRFTISQDNAKNTVYLQMNSLKPEDTAMYYCAARTYGTISLTPSDYRYWGQGTLVTVSS
modifications: camelid
TNF-alpha
  IC50 (inhibition of TNF-alpha cytotoxicity against U937): greater than 208.055 ug/ml
  inhibition of killing of U937 by TNF-alpha (in words): inhibit killing of U937 by TNF-alpha

B4: anti-TNF-alpha VHH62: anti-TNF-alpha sdAb, SEQ ID NO. 47 (protein)
VHH: QVQLVESGGGPVQAGETLRLSCTASGFTFAEADMGWYRQAPGHECELVSTITTEGITSEASSYYADSVRGRFTISRDNAKNMVYLQMNSLKPEDTAVYYCAPDPYAYSTYSDYCSWAQGTQGTLVTVSS
modifications: camelid
TNF-alpha
  IC50 (inhibition of TNF-alpha cytotoxicity against U937): approximately 713.6 ug/ml
  inhibition of killing of U937 by TNF-alpha (in words): inhibit killing of U937 by TNF-alpha

From US20160115247A1, “SINGLE DOMAIN ANTIBODIES DIRECTED AGAINST INTRACELLULAR ANTIGENS” (SINGH BIOTECHNOLOGY, LLC, priority 2014, published 2016)
